Square brackets hold non-standard residues; d marks the D form.

B1: AP520m (peptide)
peptide: Ac-RGE[dM]N[dL]S[dW]MNEYSGW[dT]M[dN]C[dK]MGR-NH2
SMILES: CSCC[C@H](NC(=O)[C@@H](CCCCN)NC(=O)[C@H](CS)NC(=O)[C@@H](CC(N)=O)NC(=O)[C@H](CCSC)NC(=O)[C@H](NC(=O)[C@H](Cc1c[nH]c2ccccc12)NC(=O)CNC(=O)[C@H](CO)NC(=O)[C@H](Cc1ccc(O)cc1)NC(=O)[C@H](CCC(=O)O)NC(=O)[C@H](CC(N)=O)NC(=O)[C@H](CCSC)NC(=O)[C@@H](Cc1c[nH]c2ccccc12)NC(=O)[C@H](CO)NC(=O)[C@@H](CC(C)C)NC(=O)[C@H](CC(N)=O)NC(=O)[C@@H](CCSC)NC(=O)[C@H](CCC(=O)O)NC(=O)CNC(=O)[C@H](CCCNC(=N)N)NC(C)=O)[C@H](C)O)C(=O)NCC(=O)N[C@@H](CCCNC(=N)N)C(N)=O
B2: AP521d (peptide)
peptide: Ac-RGE[dC]N[dL]S[dW]MNEYSGW[dT]M[dN]M[dK]MGR-NH2
modifications: also: disulfide-linked homodimer (Cys4 to Cys4 of other copy), disulfide at 4, other end not in the chain
B3: AP521m (peptide)
peptide: Ac-RGE[dC]N[dL]S[dW]MNEYSGW[dT]M[dN]M[dK]MGR-NH2
SMILES: CSCC[C@H](NC(=O)[C@@H](CCCCN)NC(=O)[C@H](CCSC)NC(=O)[C@@H](CC(N)=O)NC(=O)[C@H](CCSC)NC(=O)[C@H](NC(=O)[C@H](Cc1c[nH]c2ccccc12)NC(=O)CNC(=O)[C@H](CO)NC(=O)[C@H](Cc1ccc(O)cc1)NC(=O)[C@H](CCC(=O)O)NC(=O)[C@H](CC(N)=O)NC(=O)[C@H](CCSC)NC(=O)[C@@H](Cc1c[nH]c2ccccc12)NC(=O)[C@H](CO)NC(=O)[C@@H](CC(C)C)NC(=O)[C@H](CC(N)=O)NC(=O)[C@@H](CS)NC(=O)[C@H](CCC(=O)O)NC(=O)CNC(=O)[C@H](CCCNC(=N)N)NC(C)=O)[C@H](C)O)C(=O)NCC(=O)N[C@@H](CCCNC(=N)N)C(N)=O
B4: AP522d (peptide)
peptide: Ac-RGE[dC]N[dL]S[dW]MNEYYGW[dT]M[dN]M[dK]MGR-NH2
modifications: also: disulfide-linked homodimer (Cys4 to Cys4 of other copy), disulfide at 4, other end not in the chain
B5: AP522m (peptide)
peptide: Ac-RGE[dC]N[dL]S[dW]MNEYYGW[dT]M[dN]M[dK]MGR-NH2
SMILES: CSCC[C@H](NC(=O)[C@@H](CCCCN)NC(=O)[C@H](CCSC)NC(=O)[C@@H](CC(N)=O)NC(=O)[C@H](CCSC)NC(=O)[C@H](NC(=O)[C@H](Cc1c[nH]c2ccccc12)NC(=O)CNC(=O)[C@H](Cc1ccc(O)cc1)NC(=O)[C@H](Cc1ccc(O)cc1)NC(=O)[C@H](CCC(=O)O)NC(=O)[C@H](CC(N)=O)NC(=O)[C@H](CCSC)NC(=O)[C@@H](Cc1c[nH]c2ccccc12)NC(=O)[C@H](CO)NC(=O)[C@@H](CC(C)C)NC(=O)[C@H](CC(N)=O)NC(=O)[C@@H](CS)NC(=O)[C@H](CCC(=O)O)NC(=O)CNC(=O)[C@H](CCCNC(=N)N)NC(C)=O)[C@H](C)O)C(=O)NCC(=O)N[C@@H](CCCNC(=N)N)C(N)=O
B6: AP506d (peptide)
peptide: Ac-[dR]G[dN]W[dN]E[dS]K[dM][dN][dE][dY][dY]G[dW]M[dL]M[dC]T[dM]G[dR]-NH2
modifications: also: disulfide-linked homodimer (Cys19 to Cys19 of other copy), disulfide at 19, other end not in the chain
B7: AP505d (peptide)
peptide: Ac-RGN[dW]C[dE]S[dK]MNEYYGW[dM]L[dM]L[dT]MGR-NH2
modifications: not fully specified (residue 5); printed as RGNwCeSkMNEYYGWmLmLtMGR; also: disulfide-linked homodimer via Cys5
B8: AP516m (peptide)
peptide: Ac-[dR]G[dE]M[dN]Y[dF]W[dM][dN][dE][dY][dY]G[dW]T[dM]N[dC]K[dM]G[dR]-NH2
SMILES: CSCC[C@H](NC(=O)[C@@H](CCC(=O)O)NC(=O)CNC(=O)[C@@H](CCCNC(=N)N)NC(C)=O)C(=O)N[C@H](CC(N)=O)C(=O)N[C@@H](Cc1ccc(O)cc1)C(=O)N[C@H](Cc1ccccc1)C(=O)N[C@@H](Cc1c[nH]c2ccccc12)C(=O)N[C@H](CCSC)C(=O)N[C@H](CC(N)=O)C(=O)N[C@H](CCC(=O)O)C(=O)N[C@H](Cc1ccc(O)cc1)C(=O)N[C@H](Cc1ccc(O)cc1)C(=O)NCC(=O)N[C@H](Cc1c[nH]c2ccccc12)C(=O)N[C@H](C(=O)N[C@H](CCSC)C(=O)N[C@@H](CC(N)=O)C(=O)N[C@H](CS)C(=O)N[C@@H](CCCCN)C(=O)N[C@H](CCSC)C(=O)NCC(=O)N[C@H](CCCNC(=N)N)C(N)=O)[C@@H](C)O
B9: AP500m (peptide)
peptide: Ac-RGN[dW]N[dE]S[dK]MNEYSGW[dM]L[dM]C[dT]MGR-NH2
SMILES: CSCC[C@H](NC(=O)[C@@H](CCCCN)NC(=O)[C@H](CO)NC(=O)[C@@H](CCC(=O)O)NC(=O)[C@H](CC(N)=O)NC(=O)[C@@H](Cc1c[nH]c2ccccc12)NC(=O)[C@H](CC(N)=O)NC(=O)CNC(=O)[C@H](CCCNC(=N)N)NC(C)=O)C(=O)N[C@@H](CC(N)=O)C(=O)N[C@@H](CCC(=O)O)C(=O)N[C@@H](Cc1ccc(O)cc1)C(=O)N[C@@H](CO)C(=O)NCC(=O)N[C@@H](Cc1c[nH]c2ccccc12)C(=O)N[C@H](CCSC)C(=O)N[C@@H](CC(C)C)C(=O)N[C@H](CCSC)C(=O)N[C@@H](CS)C(=O)N[C@@H](C(=O)N[C@@H](CCSC)C(=O)NCC(=O)N[C@@H](CCCNC(=N)N)C(N)=O)[C@H](C)O
B10: AP506m (peptide)
peptide: Ac-[dR]G[dN]W[dN]E[dS]K[dM][dN][dE][dY][dY]G[dW]M[dL]M[dC]T[dM]G[dR]-NH2
SMILES: CSCC[C@H](NC(=O)[C@@H](Cc1c[nH]c2ccccc12)NC(=O)CNC(=O)[C@@H](Cc1ccc(O)cc1)NC(=O)[C@@H](Cc1ccc(O)cc1)NC(=O)[C@@H](CCC(=O)O)NC(=O)[C@@H](CC(N)=O)NC(=O)[C@@H](CCSC)NC(=O)[C@H](CCCCN)NC(=O)[C@@H](CO)NC(=O)[C@H](CCC(=O)O)NC(=O)[C@@H](CC(N)=O)NC(=O)[C@H](Cc1c[nH]c2ccccc12)NC(=O)[C@@H](CC(N)=O)NC(=O)CNC(=O)[C@@H](CCCNC(=N)N)NC(C)=O)C(=O)N[C@H](CC(C)C)C(=O)N[C@@H](CCSC)C(=O)N[C@H](CS)C(=O)N[C@H](C(=O)N[C@H](CCSC)C(=O)NCC(=O)N[C@H](CCCNC(=N)N)C(N)=O)[C@@H](C)O
B11: AP504d (peptide)
peptide: Ac-RGN[dC]N[dE]S[dK]MNEYYGW[dM]L[dM]L[dT]MGR-NH2
modifications: also: disulfide-linked homodimer (Cys4 to Cys4 of other copy), disulfide at 4, other end not in the chain
B12: AP505m (peptide)
peptide: Ac-RGN[dW]C[dE]S[dK]MNEYYGW[dM]L[dM]L[dT]MGR-NH2
modifications: not fully specified (residue 5); printed as RGNwCeSkMNEYYGWmLmLtMGR
B13: AP520d (peptide)
peptide: Ac-RGE[dM]N[dL]S[dW]MNEYSGW[dT]M[dN]C[dK]MGR-NH2
modifications: also: disulfide-linked homodimer via Cys19
B14: AP516d (peptide)
peptide: Ac-[dR]G[dE]M[dN]Y[dF]W[dM][dN][dE][dY][dY]G[dW]T[dM]N[dC]K[dM]G[dR]-NH2
modifications: also: disulfide-linked homodimer (Cys19 to Cys19 of other copy), disulfide at 19, other end not in the chain

For the test, the target named is Aβ42 (UniProt P05067 672-713). Kind of test: cell-based or functional assay.
Chain of Aβ42 (P05067 672-713 limits assumed): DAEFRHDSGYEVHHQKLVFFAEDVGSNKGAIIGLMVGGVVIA
Regarding B1, the “% inhibition of fibril formation (ThT), AP:Aβ42 1:1” value came to 47%; the “% inhibition of fibril formation (ThT), AP:Aβ42 1:10” value was determined as 33.1%; the “% inhibition of fibril formation (ThT), AP:Aβ42 1:100” value (“% inhibition … AP:Aβ42 1:100” for short) was determined as 0%.

With B2, the “% inhibition of fibril formation (ThT), AP:Aβ42 1:1” value came out at 100%; the “% inhibition of fibril formation (ThT), AP:Aβ42 1:10” value stood at 100%; the “% inhibition … AP:Aβ42 1:100” value came out at 54.3%.

B3: the “% inhibition of fibril formation (ThT), AP:Aβ42 1:1” value stood at 74%; the “% inhibition of fibril formation (ThT), AP:Aβ42 1:10” value came out at 34.6%; the “% inhibition … AP:Aβ42 1:100” value was 0%.

For the molecule B4, the “% inhibition of fibril formation (ThT), AP:Aβ42 1:1” value was determined as 100%; the “% inhibition of fibril formation (ThT), AP:Aβ42 1:10” value turned out to be 88.1%; the “% inhibition … AP:Aβ42 1:100” value came out at 52.4%.

Take B5: the “% inhibition of fibril formation (ThT), AP:Aβ42 1:1” value is 45.7%; the “% inhibition of fibril formation (ThT), AP:Aβ42 1:10” value stood at 12.6%; the “% inhibition … AP:Aβ42 1:100” value came to 0%.

In the case of B6, the “% inhibition of fibril formation (ThT), AP:Aβ42 1:1” value worked out at 100%; the “% inhibition of fibril formation (ThT), AP:Aβ42 1:10” value turned out to be 100%; the “% inhibition … AP:Aβ42 1:100” value is 49.1%.

Take B7: the “% inhibition of fibril formation (ThT), AP:Aβ42 1:1” value amounted to 100%; the “% inhibition of fibril formation (ThT), AP:Aβ42 1:10” value was determined as 79.5%; the “% inhibition … AP:Aβ42 1:100” value was 51.4%.

For the molecule B8, the “% inhibition of fibril formation (ThT), AP:Aβ42 1:1” value is 76.6%; the “% inhibition of fibril formation (ThT), AP:Aβ42 1:10” value was 56.4%; the “% inhibition … AP:Aβ42 1:100” value came to 0%.

B9: the “% inhibition of fibril formation (ThT), AP:Aβ42 1:1” value was 76.6%; the “% inhibition of fibril formation (ThT), AP:Aβ42 1:10” value was 9%; the “% inhibition … AP:Aβ42 1:100” value stood at 0%.

For the molecule B10, the “% inhibition of fibril formation (ThT), AP:Aβ42 1:1” value was 67.6%; the “% inhibition of fibril formation (ThT), AP:Aβ42 1:10” value turned out to be 0%; the “% inhibition … AP:Aβ42 1:100” value was 0%.

B11: the “% inhibition of fibril formation (ThT), AP:Aβ42 1:1” value is 100%; the “% inhibition of fibril formation (ThT), AP:Aβ42 1:10” value amounted to 100%; the “% inhibition … AP:Aβ42 1:100” value is 64.3%.

With B12, the “% inhibition of fibril formation (ThT), AP:Aβ42 1:1” value was found to be 26.8%; the “% inhibition of fibril formation (ThT), AP:Aβ42 1:10” value came out at 16.4%; the “% inhibition … AP:Aβ42 1:100” value is 0%.

For the molecule B13, the “% inhibition of fibril formation (ThT), AP:Aβ42 1:1” value came to 100%; the “% inhibition of fibril formation (ThT), AP:Aβ42 1:10” value worked out at 91.2%; the “% inhibition … AP:Aβ42 1:100” value amounted to 45.3%.

As for B14, the “% inhibition of fibril formation (ThT), AP:Aβ42 1:1” value was found to be 100%; the “% inhibition of fibril formation (ThT), AP:Aβ42 1:10” value came out at 98.2%; the “% inhibition … AP:Aβ42 1:100” value worked out at 51.3%.
